Test results from paper PMC3399532 (Prion, 2012).

Biological target: MoPrP-Fc (mouse, UniProt P04925 23-230)
Assay: ELISA

Sequence of MoPrP-Fc (P04925 23-230): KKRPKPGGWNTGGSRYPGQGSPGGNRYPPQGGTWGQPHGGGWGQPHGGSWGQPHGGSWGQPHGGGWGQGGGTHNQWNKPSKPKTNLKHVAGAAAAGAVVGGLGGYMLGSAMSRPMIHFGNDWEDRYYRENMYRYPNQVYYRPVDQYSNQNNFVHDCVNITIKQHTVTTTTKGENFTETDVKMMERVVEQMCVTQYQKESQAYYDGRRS

B1: mouse (Mo) Dpl (26–155) (domain or fragment)
chain: ARGIKHRFKWNRKVLPSSGGQITEARVAENRPGAFIKQGRKLDIDFGAEGNRYYAANYWQFPDGIYYEGCSEANVTKEMLVTSCVNATQAANQAEFSREKQDSKLHQRVLWRLIKEICSAKHCDFWLERG
binding result: binds
